In US20240010721A1 (HARBOUR BIOMED SHANGHAI, published 2024):

B1: PR001360 (antibody, human IgG1, kappa, V domains shown)
VH: QVQLVESGGGVVQPGRSLRLSCAASGFTFSSYGMHWVRQAPGKGLEWVAVIWYDGSDKDSVDSVKGRFTISRDDSKNTLYLQMNSLRAEDTAVYYCAREQARSFDLWGRGTLVTVSS
VL: DIQMTQSPSTLSASVGDRVTITCRASQTINNWLAWYQQKPGKAPKLLIYKASSLESGVPSRFSGSGSGTEFTLTISSLQPDDFATYYCQQYNIYSPMYTFGQGTKVEIKR
notes: fully human IgG1, kappa
B2: PR002578 (antibody, human IgG1, kappa, V domains shown)
VH: EVQLLESGGGVVQPGRSLRLSCAASGFTFSSFGMHWVRQAPGKGLEWVAVIWYDASDKDYADSVKGRFTISRDTSKNTLYLQMNSLRAEDTAVYYCAREQARSFDLWGRGTLVTVSS
VL: DIVMTQSPSTLSASVGDRVTITCRASQTINNWLAWYQQKPGKAPKLLIYKASSLESGVPSRFSGSGSGTEFTLTISSLQPDDFATYYCQQYQSYSPMYTFGQGTKVEIKR
notes: PR001364 variant: VH G55A, VL N92Q; hIgG1; also called anti-ROR1 1015M3-D8(H: G55A; L: N92Q) hIgG1
B3: PR002583 (antibody, human IgG1, kappa, V domains shown)
VH: QVQLVESGGGVVQPGRSLRLSCAASGFTFSNYGIHWVRQAPGKGLEWVAIMWYEGSNTDYADSVKGRFTISRDTSKNTLFLQMNSLRAEDTAVYYCAREQARSFDLWGRGTLVTVSS
VL: DIVMTQSPSTLSASVGDRVTITCRASQTINNWLAWYQQKPGKAPKLLIYKASSLESGVPSRFSGSGSGTEFTLTISSLQPDDFATYYCQQYQSYSPMYTFGQGTKVEIKR
notes: PR001369 variant: VH D54E, VL N92Q; hIgG1; also called anti-ROR1 1015M3-H10(H: D54E; L: N92Q) hIgG1
B4: PR002581 (antibody, human IgG1, kappa, V domains shown)
VH: QVQLVESGGGVVQPGRSLRLSCAASGFTFSNYGIHWVRQAPGKGLEWVAIMWYDGSNTDYADSVKGRFTISRDTSKNTLFLQMNSLRAEDTAVYYCAREQARSFDLWGRGTLVTVSS
VL: DIVMTQSPSTLSASVGDRVTITCRASQTINNWLAWYQQKPGKAPKLLIYKASSLESGVPSRFSGSGSGTEFTLTISSLQPDDFATYYCQQYNAYSPMYTFGQGTKVEIKR
notes: PR001369 variant: VL S93A; hIgG1; also called anti-ROR1 1015M3-H10(L: S93A) hIgG1
B5: PR002579 (antibody, human IgG1, kappa, V domains shown)
VH: EVQLLESGGGVVQPGRSLRLSCAASGFTFSSFGMHWVRQAPGKGLEWVAVIWYDASDKDYADSVKGRFTISRDTSKNTLYLQMNSLRAEDTAVYYCAREQARSFDLWGRGTLVTVSS
VL: DIVMTQSPSTLSASVGDRVTITCRASQTINNWLAWYQQKPGKAPKLLIYKASSLESGVPSRFSGSGSGTEFTLTISSLQPDDFATYYCQQYNAYSPMYTFGQGTKVEIKR
notes: PR001364 variant: VH G55A, VL S93A; hIgG1; also called anti-ROR1 1015M3-D8(H: G55A; L: S93A) hIgG1
B6: PR002582 (antibody, human IgG1, kappa, V domains shown)
VH: QVQLVESGGGVVQPGRSLRLSCAASGFTFSNYGIHWVRQAPGKGLEWVAIMWYEGSNTDYADSVKGRFTISRDTSKNTLFLQMNSLRAEDTAVYYCAREQARSFDLWGRGTLVTVSS
VL: DIVMTQSPSTLSASVGDRVTITCRASQTINNWLAWYQQKPGKAPKLLIYKASSLESGVPSRFSGSGSGTEFTLTISSLQPDDFATYYCQQYNSYSPMYTFGQGTKVEIKR
notes: PR001369 variant: VH D54E; hIgG1; also called anti-ROR1 1015M3-H10(H: D54E) hIgG1
B7: PR002575 (antibody, human IgG1, kappa, V domains shown)
VH: EVQLLESGGGVVQPGRSLRLSCAASGFTFSSFGMHWVRQAPGKGLEWVAVIWYEGSDKDYADSVKGRFTISRDTSKNTLYLQMNSLRAEDTAVYYCAREQARSFDLWGRGTLVTVSS
VL: DIVMTQSPSTLSASVGDRVTITCRASQTINNWLAWYQQKPGKAPKLLIYKASSLESGVPSRFSGSGSGTEFTLTISSLQPDDFATYYCQQYQSYSPMYTFGQGTKVEIKR
notes: PR001364 variant: VH D54E, VL N92Q; hIgG1; also called anti-ROR1 1015M3-D8(H: D54E; L: N92Q) hIgG1
B8: PR002587 (antibody, human IgG1, kappa, V domains shown)
VH: QVQLVESGGGVVQPGRSLRLSCAASGFTFSNYGIHWVRQAPGKGLEWVAIMWYDASNTDYADSVKGRFTISRDTSKNTLFLQMNSLRAEDTAVYYCAREQARSFDLWGRGTLVTVSS
VL: DIVMTQSPSTLSASVGDRVTITCRASQTINNWLAWYQQKPGKAPKLLIYKASSLESGVPSRFSGSGSGTEFTLTISSLQPDDFATYYCQQYNAYSPMYTFGQGTKVEIKR
notes: PR001369 variant: VH G55A, VL S93A; hIgG1; also called anti-ROR1 1015M3-H10(H: G55A; L: S93A) hIgG1
B9: PR002584 (antibody, human IgG1, kappa, V domains shown)
VH: QVQLVESGGGVVQPGRSLRLSCAASGFTFSNYGIHWVRQAPGKGLEWVAIMWYEGSNTDYADSVKGRFTISRDTSKNTLFLQMNSLRAEDTAVYYCAREQARSFDLWGRGTLVTVSS
VL: DIVMTQSPSTLSASVGDRVTITCRASQTINNWLAWYQQKPGKAPKLLIYKASSLESGVPSRFSGSGSGTEFTLTISSLQPDDFATYYCQQYNAYSPMYTFGQGTKVEIKR
notes: PR001369 variant: VH D54E, VL S93A; hIgG1; also called anti-ROR1 1015M3-H10(H: D54E; L: S93A) hIgG1
B10: PR002580 (antibody, human IgG1, kappa, V domains shown)
VH: QVQLVESGGGVVQPGRSLRLSCAASGFTFSNYGIHWVRQAPGKGLEWVAIMWYDGSNTDYADSVKGRFTISRDTSKNTLFLQMNSLRAEDTAVYYCAREQARSFDLWGRGTLVTVSS
VL: DIVMTQSPSTLSASVGDRVTITCRASQTINNWLAWYQQKPGKAPKLLIYKASSLESGVPSRFSGSGSGTEFTLTISSLQPDDFATYYCQQYQSYSPMYTFGQGTKVEIKR
notes: PR001369 variant: VL N92Q; hIgG1; also called anti-ROR1 1015M3-H10(L: N92Q) hIgG1
B11: PR002576 (antibody, human IgG1, kappa, V domains shown)
VH: EVQLLESGGGVVQPGRSLRLSCAASGFTFSSFGMHWVRQAPGKGLEWVAVIWYEGSDKDYADSVKGRFTISRDTSKNTLYLQMNSLRAEDTAVYYCAREQARSFDLWGRGTLVTVSS
VL: DIVMTQSPSTLSASVGDRVTITCRASQTINNWLAWYQQKPGKAPKLLIYKASSLESGVPSRFSGSGSGTEFTLTISSLQPDDFATYYCQQYNAYSPMYTFGQGTKVEIKR
notes: PR001364 variant: VH D54E, VL S93A; hIgG1; also called anti-ROR1 1015M3-D8(H: D54E; L: S93A) hIgG1
B12: PR002577 (antibody, human IgG1, kappa, V domains shown)
VH: EVQLLESGGGVVQPGRSLRLSCAASGFTFSSFGMHWVRQAPGKGLEWVAVIWYDASDKDYADSVKGRFTISRDTSKNTLYLQMNSLRAEDTAVYYCAREQARSFDLWGRGTLVTVSS
VL: DIVMTQSPSTLSASVGDRVTITCRASQTINNWLAWYQQKPGKAPKLLIYKASSLESGVPSRFSGSGSGTEFTLTISSLQPDDFATYYCQQYNSYSPMYTFGQGTKVEIKR
notes: PR001364 variant: VH G55A; hIgG1; also called anti-ROR1 1015M3-D8(H: G55A) hIgG1
B13: PR002585 (antibody, human IgG1, kappa, V domains shown)
VH: QVQLVESGGGVVQPGRSLRLSCAASGFTFSNYGIHWVRQAPGKGLEWVAIMWYDASNTDYADSVKGRFTISRDTSKNTLFLQMNSLRAEDTAVYYCAREQARSFDLWGRGTLVTVSS
VL: DIVMTQSPSTLSASVGDRVTITCRASQTINNWLAWYQQKPGKAPKLLIYKASSLESGVPSRFSGSGSGTEFTLTISSLQPDDFATYYCQQYNSYSPMYTFGQGTKVEIKR
notes: PR001369 variant: VH G55A; hIgG1; also called anti-ROR1 1015M3-H10(H: G55A) hIgG1
B14: PR002586 (antibody, human IgG1, kappa, V domains shown)
VH: QVQLVESGGGVVQPGRSLRLSCAASGFTFSNYGIHWVRQAPGKGLEWVAIMWYDASNTDYADSVKGRFTISRDTSKNTLFLQMNSLRAEDTAVYYCAREQARSFDLWGRGTLVTVSS
VL: DIVMTQSPSTLSASVGDRVTITCRASQTINNWLAWYQQKPGKAPKLLIYKASSLESGVPSRFSGSGSGTEFTLTISSLQPDDFATYYCQQYQSYSPMYTFGQGTKVEIKR
notes: PR001369 variant: VH G55A, VL N92Q; hIgG1; also called anti-ROR1 1015M3-H10(H: G55A; L: N92Q) hIgG1

Experiments:
[1] = target: T1, hROR2ECD-his (human, UniProt Q01974 34-403); experiment: ELISA, plate coated with hROR2 ECD-his
T1 construct: extracellular domain; bought, Acrobiosystems R02-H52E5; also called huROR2-his
T1 sequence (Q01974 34-403): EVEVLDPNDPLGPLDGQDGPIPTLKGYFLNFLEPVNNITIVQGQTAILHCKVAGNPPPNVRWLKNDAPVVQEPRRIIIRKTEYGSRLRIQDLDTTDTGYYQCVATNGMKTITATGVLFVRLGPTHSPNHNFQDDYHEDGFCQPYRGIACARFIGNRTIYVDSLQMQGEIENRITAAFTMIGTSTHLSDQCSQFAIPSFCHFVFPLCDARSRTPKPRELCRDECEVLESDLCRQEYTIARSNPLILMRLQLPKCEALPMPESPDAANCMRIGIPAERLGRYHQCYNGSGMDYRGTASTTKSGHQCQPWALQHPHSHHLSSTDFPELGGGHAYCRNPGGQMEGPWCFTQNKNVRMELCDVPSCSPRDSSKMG
Procedure: (§1) Screening by ELISA assay: 96-well plates (Corning 9018) were coated with 1 μg/mL hROR1 ECD-his/hROR2 ECD-his/mROR1 ECD-his proteins prepared with PBS in Example 1a above and incubated at 4° C. overnight. The liquid was then discarded, and the plates were washed 3 times with PBST, blocked with 5% milk for 2 h at room temperature, and washed 3 times with PBST. The taken supernatant was added at 100 μL/well, and the plates were incubated at room temperature for 1 h, followed by washing 3 times with PBST. 100 μL/well of secondary antibody (Sigma, Cat#: A8592) was added, the plates were incubated at room temperature for 1 h, and then washed. TMB was then added to the plates at 100 μL/well and incubated for 15 min at room temperature. Thereafter, the reaction was terminated and data were read.
(§2) a. Results of ELISA assay (the ELISA assay was performed according to the same procedures as in Example 2c, except that the added samples were recombinant antibodies and the secondary antibody was a-Fc (Genscript, Cat#: A01854))

[2] = target: T2, human ROR1 (hROR1) on cells (human, UniProt Q01973 30-937); experiment: FACS, HEK293T-hROR1 cells; cytometer saturated
T2 construct: whole, on cells; the cell line is named under assay; also called HEK293T-hROR1; 293T-hROR1
T2 sequence (Q01973 30-937): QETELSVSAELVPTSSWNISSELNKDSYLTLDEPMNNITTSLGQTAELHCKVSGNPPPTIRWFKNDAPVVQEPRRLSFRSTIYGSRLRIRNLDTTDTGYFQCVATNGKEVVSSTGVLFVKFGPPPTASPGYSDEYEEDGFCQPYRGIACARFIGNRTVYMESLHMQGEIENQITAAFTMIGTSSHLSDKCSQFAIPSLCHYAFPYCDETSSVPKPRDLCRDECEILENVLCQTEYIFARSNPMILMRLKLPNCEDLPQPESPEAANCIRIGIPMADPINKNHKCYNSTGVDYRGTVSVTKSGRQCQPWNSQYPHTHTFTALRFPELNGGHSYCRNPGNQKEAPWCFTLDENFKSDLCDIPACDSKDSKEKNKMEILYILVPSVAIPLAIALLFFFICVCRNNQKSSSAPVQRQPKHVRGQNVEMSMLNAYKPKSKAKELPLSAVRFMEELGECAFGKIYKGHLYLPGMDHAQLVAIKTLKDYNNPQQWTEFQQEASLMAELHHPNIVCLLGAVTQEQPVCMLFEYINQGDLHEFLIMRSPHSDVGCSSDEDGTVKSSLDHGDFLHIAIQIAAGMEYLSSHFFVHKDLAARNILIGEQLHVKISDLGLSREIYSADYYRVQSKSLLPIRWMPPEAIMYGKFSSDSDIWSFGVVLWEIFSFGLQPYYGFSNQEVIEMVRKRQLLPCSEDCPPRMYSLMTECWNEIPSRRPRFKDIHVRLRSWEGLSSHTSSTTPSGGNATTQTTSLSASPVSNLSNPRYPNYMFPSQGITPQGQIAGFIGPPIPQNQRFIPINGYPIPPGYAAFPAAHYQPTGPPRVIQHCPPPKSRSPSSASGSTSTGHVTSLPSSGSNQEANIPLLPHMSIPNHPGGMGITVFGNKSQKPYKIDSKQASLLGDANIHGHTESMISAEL
Procedure: (§3) The binding properties were characterized by FACS. The recombinant antibodies obtained above were serially diluted to 9 different concentrations and incubated for 1 h, and then determined for the binding ability with HEK293T-hROR1, CHO-K1-cynoROR1 and A549 cell lines (endogenously expressing ROR1), respectively. The secondary antibody was then incubated for 1 h. The results are shown in FIG. 4-6 and Table 7-2 below.

[3] = target: T3, ROR1 (antigen of the KD determination and of the Octet dissociation measurement) (UniProt Q01973 30-403, limits assumed); experiment: method not stated (conventional procedures)
T3 sequence (Q01973 30-403 limits assumed): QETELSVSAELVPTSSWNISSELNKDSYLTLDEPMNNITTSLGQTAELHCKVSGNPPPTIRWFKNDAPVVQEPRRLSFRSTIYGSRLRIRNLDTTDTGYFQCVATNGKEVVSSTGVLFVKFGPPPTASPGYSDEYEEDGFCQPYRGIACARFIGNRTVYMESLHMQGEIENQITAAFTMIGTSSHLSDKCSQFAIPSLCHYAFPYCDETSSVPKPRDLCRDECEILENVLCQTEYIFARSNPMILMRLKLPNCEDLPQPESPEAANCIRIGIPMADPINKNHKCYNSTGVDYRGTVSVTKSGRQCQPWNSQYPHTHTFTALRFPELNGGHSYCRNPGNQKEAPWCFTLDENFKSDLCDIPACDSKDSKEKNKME

[4] = target: T4, cynomolgus ROR1 (cynoROR1) on CHO-K1 cells (cynomolgus, UniProt A0A2K5WTX7 30-937); experiment: FACS, CHO-K1-cynoROR1 cells
T4 construct: whole, on cells; also called CHO-K1-cynoROR1; CHO-K1-cyROR1
Procedure: as §3

[5] = target: T2, human ROR1 (hROR1) on cells; experiment: FACS, A549 cells
Procedure: as §3

[6] = target: T5, Human ROR1-ECD-his (human, UniProt Q01973 30-406); experiment: ELISA, plate coated with hROR1 ECD-his
T5 construct: extracellular domain; bought, Acrobiosystems RO1-H522y; also called hROR1-ECD-his; hROR1 ECD-his
T5 sequence (Q01973 30-406): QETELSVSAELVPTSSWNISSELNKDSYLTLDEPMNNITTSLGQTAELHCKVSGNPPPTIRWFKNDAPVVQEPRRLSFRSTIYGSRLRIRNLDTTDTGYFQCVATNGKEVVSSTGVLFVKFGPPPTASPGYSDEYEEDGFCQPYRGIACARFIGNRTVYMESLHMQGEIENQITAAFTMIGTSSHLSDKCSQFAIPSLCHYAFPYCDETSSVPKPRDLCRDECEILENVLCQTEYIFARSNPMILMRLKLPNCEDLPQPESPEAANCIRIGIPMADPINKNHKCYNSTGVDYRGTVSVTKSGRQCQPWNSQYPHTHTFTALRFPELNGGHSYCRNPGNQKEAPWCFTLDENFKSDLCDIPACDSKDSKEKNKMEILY
Procedure: as §1, §2

[7] = target: T1, hROR2ECD-his; experiment: ELISA, plate coated with hROR2 ECD-his; remark: listed apart in the source
Procedure: as §1, §2
The corresponding values in the table are the measured median fluorescence intensity (MFI).

[8] = target: T2, human ROR1 (hROR1) on cells; experiment: FACS, HEK293T-hROR1 cells
Procedure: as §3

[9] = target: T3, ROR1 (antigen of the KD determination …); experiment: Octet, antigen form not stated
[10] = target: T2, human ROR1 (hROR1) on cells; experiment: FACS, HEK293T-hROR1 cells; remark: listed apart in the source
[11] = target: T2, human ROR1 (hROR1) on cells; experiment: FACS, Panc-1 cells

Binder	Response [9]	koff [9] [s⁻¹]	MFI [10] [MFI]	MFI [11] [MFI]	also measured
B1	–	–	–	–	ELISA signal (called MFI) [1]: 0.0315; MAX(MFI) [2]: 262000 MFI; Kd [3]: 0.804 nM; koff [3]: 0.000248 s⁻¹; kon [3]: 309000 M⁻¹ s⁻¹; MAX(MFI) [4]: 25000 MFI; MAX(MFI) [5]: 4050 MFI; ELISA signal (called MFI) [6]: 2.44; binding result [7]: no binding; fold lower EC50 than reference PR000374 [8]: 10 fold
B2	0.414	0.000322	45100	6700	–
B3	0.672	0.000223	25300	3950	–
B4	0.974	6.73e-05	42300	3180	–
B5	0.783	0.000199	43100	7050	–
B6	0.798	0.000193	32300	1990	–
B7	0.828	0.000112	33800	3250	–
B8	0.756	0.000394	41500	2950	–
B9	0.69	0.000301	36600	3180	–
B10	0.985	4.75e-05	42500	3720	–
B11	0.866	9.83e-05	40200	2470	–
B12	0.244	0.000601	44200	6490	–
B13	0.771	0.000389	32700	2610	–
B14	0.754	0.000266	41900	5490	–
